Reference: patent US11655308B2, “HM-3 fusion protein and application thereof” (TASLY BIOPHARMACEUTICALS CO., LTD., priority 2017, dated 2023)
Marks after values point to notes of the source that are not given here.

Tests used:
[1] = system: mice splenic lymphocyte proliferation stimulated by ConA; format: cell-based
Procedure: Experimental method: mice orbit was by bloodletting to death, and immediately immersed in 75% ethanol for 5-10 min, and then the spleen was removed on a clean bench and placed in PBS. The spleen was placed on a sterile cell strainer (200 mesh) and ground with a syringe nozzle; during grinding process, PBS was added continuously; the slurry was collected and centrifuged (1000 rpm for 5 min), then cells were washed 3 times with Tris-ammonium chloride solution, and washed again with a medium, and then re-suspended in the medium. Finally, trypan blue living cell staining was performed on the cells, and the survival rate was more than 95%. The concentration of viable cells was adjusted to 2×10^6/mL. […] was added to each well of a 96-well plate, meanwhile, ConA (concanavalin to simulate splenocyte proliferation) and drugs were added to each well. Six duplicates were set in each group.
The 96-well plate was incubated for 48 h in a 5% CO2 incubator at 37° C. 5 mg/mL of MTT was added to the 96-well plate, 20 μL for each well, and then it was incubated continuously for 4 h in the incubator. The culture medium in the 96-well plate was discarded and 100 μL DMSO was added to each well and mixed gently. Absorbance was measured by a microplate reader at the wavelength of 570 nm and reference wavelength of 630 nm.
Proliferation inhibition rate (PI) was calculated according to formula:
[formula] wherein, Atest is the absorbance of dosing group, and Acontrol is the absorbance of negative control. Test results were expressed as mean±SD, and statistical T test was performed. *P<0.05 indicates significant difference, **P<0.01 indicates extremely significant difference. Based upon the results, the efficacy of the fusion protein against rheumatoid arthritis was screened.
In the P4 control group, TSL-4 fusion protein served as a control agent.

Rat chondrocyte = assay: Protective effect of TSL-4 on chondrocytes injured by hydrogen peroxide (MTT); format: cell-based
Procedure: The culture medium was replaced to different experimental groups in the following day with a dose volume of 100 μl and incubated for 24 or 48 hours respectively.
At the end of incubation according to the experimental plan, 10 μL of 5 mg/ml MTT was added to each experimental group based upon 1/10 of the cell culture volume, so that the cells were incubated with MTT in the incubator for 4 hours. Afterwards, supernatant was carefully discarded, and 200 μL of dimethyl sulfoxide (DMSO) was added for mixing well, then the absorbance was measured on a microplate reader at a test wavelength of 570 nm. Calculating formula of relative cell activity ratio (%): a mean value of the absorbance (per well) in the experimental group/the absorbance in the control group multiplies by 100%. […] The difference between each group was analyzed by Prism 7.0, and tested by one-way ANOVA. *P<0.05 means statistical difference, **P<0.01 means significant statistical difference, and […] means extremely significant statistical difference.
In order to detect the protective effect of TSL-4 on chondrocytes injured by hydrogen peroxide, the experiment was divided into three groups control group (no hydrogen peroxide and TSL-4, only adding fresh culture medium), hydrogen peroxide modeling group (only adding hydrogen peroxide cell culture medium containing different concentrations) and TSL-4 administration group (containing hydrogen peroxide). In order to detect the protective effect of TSL-4 on chondrocytes injured by hydrogen peroxide, TSL-4 and hydrogen peroxide were cultured with chondrocytes for 24 hours. The dosage of hydrogen peroxide was selected within 0.1, 0.25, 0.5 and 1 mM; the TSL-4 dosage was 0.23, 1.17, 5.86, 29.3
In the presence of different doses of H2O2, TSL-4 at proper concentration and chondrocytes were cultured for 24 h, and the relative cell viability in each administration group (relative absorbance percentage to the control group) was expressed as the following X±SD.
In the presence of the molding agent H2O2 at 0.25, 0.35, 0.5 mM, 1.17 and 5.86 μM TSL-4 were cultured with chondrocytes for 24 h, and the relative cell viability in each administration group (relative absorbance percentage to the control group) was expressed as the followings X±SD.

mIgG4-Fc-(GGGGS)3-HM-3 [TSL-4]
optimal (best) inhibition rate of splenic lymphocyte proliferation ([1]; ConA 5 μg/mL, 48 h, MTT, best of the tested concentrations): 63.3%
inhibition rate compared with the positive control group ([1]; positive group Dexamethasone 50 μmol/L): higher than that of the positive control group
inhibition ratio of mice splenic lymphocyte proliferation relative to group ConA ([1]; second round (Table 3)): enhanced significantly
relative cell viability (relative absorbance percentage to the control group) (Rat chondrocyte; 0.23 μM TSL-4, 0.1 mM H2O2, 24 h, 0 μM 106.87 ± 9.52): 84.23 ± 20.42***
relative cell viability (relative absorbance percentage to the control group) (Rat chondrocyte; 0.23 μM TSL-4, 0.25 mM H2O2, 24 h, 0 μM 70.96 ± 11.61): 71.42 ± 6.74
relative cell viability (relative absorbance percentage to the control group) (Rat chondrocyte; 0.23 μM TSL-4, 0.5 mM H2O2, 24 h, 0 μM 1.68 ± 0.82): 3.17 ± 1.45
relative cell viability (relative absorbance percentage to the control group) (Rat chondrocyte; 0.23 μM TSL-4, 1 mM H2O2, 24 h, 0 μM 3.57 ± 0.60): 0.89 ± 0.32
relative cell viability (relative absorbance percentage to the control group) (Rat chondrocyte; 1.17 μM TSL-4, 0.1 mM H2O2, 24 h, 0 μM 106.87 ± 9.52): 100.01 ± 5.02
relative cell viability (relative absorbance percentage to the control group) (Rat chondrocyte; 1.17 μM TSL-4, 0.25 mM H2O2, 24 h, 0 μM 70.96 ± 11.61): 85.11 ± 8.08*
relative cell viability (relative absorbance percentage to the control group) (Rat chondrocyte; 1.17 μM TSL-4, 0.5 mM H2O2, 24 h, 0 μM 1.68 ± 0.82): 16.56 ± 5.91*
relative cell viability (relative absorbance percentage to the control group) (Rat chondrocyte; 1.17 μM TSL-4, 1 mM H2O2, 24 h, 0 μM 3.57 ± 0.60): 1.14 ± 1.07
relative cell viability (relative absorbance percentage to the control group) (Rat chondrocyte; 5.86 μM TSL-4, 0.1 mM H2O2, 24 h, 0 μM 106.87 ± 9.52): 102.36 ± 9.75
relative cell viability (relative absorbance percentage to the control group) (Rat chondrocyte; 5.86 μM TSL-4, 0.25 mM H2O2, 24 h, 0 μM 70.96 ± 11.61): 86.35 ± 4.20*
relative cell viability (relative absorbance percentage to the control group) (Rat chondrocyte; 5.86 μM TSL-4, 0.5 mM H2O2, 24 h, 0 μM 1.68 ± 0.82): 10.27 ± 7.08
relative cell viability (relative absorbance percentage to the control group) (Rat chondrocyte; 5.86 μM TSL-4, 1 mM H2O2, 24 h, 0 μM 3.57 ± 0.60): 1.21 ± 0.70
relative cell viability (relative absorbance percentage to the control group) (Rat chondrocyte; 29.3 μM TSL-4, 0.1 mM H2O2, 24 h, 0 μM 106.87 ± 9.52): 76.46 ± 5.45****
relative cell viability (relative absorbance percentage to the control group) (Rat chondrocyte; 29.3 μM TSL-4, 0.25 mM H2O2, 24 h, 0 μM 70.96 ± 11.61): 59.72 ± 3.49
relative cell viability (relative absorbance percentage to the control group) (Rat chondrocyte; 29.3 μM TSL-4, 0.5 mM H2O2, 24 h, 0 μM 1.68 ± 0.82): 3.87 ± 6.00
relative cell viability (relative absorbance percentage to the control group) (Rat chondrocyte; 29.3 μM TSL-4, 1 mM H2O2, 24 h, 0 μM 3.57 ± 0.60): 0.43 ± 0.53
viability of chondrocytes stimulated by H2O2 (Rat chondrocyte; 0.23/29.3 μM TSL-4, 0.1 mM H2O2): relatively significantly inhibiting effect
relative cell viability (relative absorbance percentage to the control group) (Rat chondrocyte; repeated trial: 1.17 μM TSL-4, 0.25 mM H2O2, 24 h, 0 μM 78.77 ± 7.45): 85.31 ± 7.36
relative cell viability (relative absorbance percentage to the control group) (Rat chondrocyte; repeated trial: 1.17 μM TSL-4, 0.35 mM H2O2, 24 h, 0 μM 63.96 ± 6.46): 68.54 ± 3.62
relative cell viability (relative absorbance percentage to the control group) (Rat chondrocyte; repeated trial: 1.17 μM TSL-4, 0.5 mM H2O2, 24 h, 0 μM 37.10 ± 6.53): 41.46 ± 2.08
relative cell viability (relative absorbance percentage to the control group) (Rat chondrocyte; repeated trial: 5.86 μM TSL-4, 0.25 mM H2O2, 24 h, 0 μM 78.77 ± 7.45): 87.36 ± 7.85
viability of chondrocytes injured by H2O2 (Rat chondrocyte; repeated trial: 5.86 μM TSL-4, 0.35 mM H2O2): significantly improve the viability of chondrocytes
relative cell viability (relative absorbance percentage to the control group) (Rat chondrocyte; repeated trial: 5.86 μM TSL-4, 0.35 mM H2O2, 24 h, 0 μM 63.96 ± 6.46): 73.29 ± 4.39
relative cell viability (relative absorbance percentage to the control group) (Rat chondrocyte; repeated trial: 5.86 μM TSL-4, 0.5 mM H2O2, 24 h, 0 μM 37.10 ± 6.53): 45.07 ± 6.36
